According to the DeepSol protein solubility set:

Assay: soluble on expression in E. coli; label from the status in PepcDB or PDB records

| Sequence | soluble on expression in E. coli |
| --- | --- |
| MGSDKIHHHHHHMKVFFVVDIKSGKVVAGKGGERESYPPITAISRLVSSDDALKVIEEIKPRFLYAADLDRIVGLGDNFSLLSKLSKRVEELIADCGFRSPEELEKLPFTPVVGTETFDITQLDRKCYVSLDFKEKFLDASGKFESWEEVVKFLNSFDLYGLIVLPIHAVGAMKPDLSVLTKTLELSEHPVMLGGGISGVEDLERLKEMGCSGVLVATAVHKGKIPLDVVRKGKF | not soluble |
| MGKNRNKNKDKDPYIGPAKTGRNDSDSDDSESSAYTYNEDIQSIMGDVEDMNDVYDQLVDNLDRAQDKNSTTRIDGLHRVNLALTAKPAPEFINRNKETIMAVCSRMANKPDSEAQFLARLVGLVAVQAGEEISEMIAEPMSQMRTILMDASRCVFLRTACATSLAIVTRIACSEDEEVTANAKACRFAWAHTKVSGSANDIGHAKLTINDAVADQPKIVTLLSSNQLEVRLAAAETLAFLHEFMQDARPGFRFPNKEHVLSLLDQMVNDSSKKKTKKDKRAQRYAVRDIRAFIADEDDAPEVNVKIGQQTLSLDSCAIKIFYDTTCDLLHGGLAQQLLHNEVLRDVFDLGPIALEPAESANKQSRLAVHEAADKHRNQVRGKQRDKRSTVY | not soluble |
| SLRTYFAQRAEMEQLAATEAMLRRQIADLEEQQVKLADPAYIAAQARERLGFVMPGDIPFQVQLPSTPLAPPQPGSDAATATNNEPWYTALWHTIADDPHLPPAAPPAPEPGRPGPLPPASPNPEQPGG | soluble |
| MGSDKIHHHHHHMKSKANQSQGLLLFRLSQHQIFALGTLKIRELVPYTPLSKIPQSHPTILGAATIRGHTIPVVDMAAAIGYRPVSDEERQHCYIIITDCQRMIIGFLVRAIDKIIECNWRDIEAPSANLGKNAFLTGVTRYDNQLVQLLDVELLLSKVFPDAPEANRAILTDVQREKLKPRRILLVDDSKVARKQLSDALDSINIPYFVTPDGREALSIMEQAAAEHHPIDILVSDIEMPGLDGYELAFEVRDNPLLANAYIILHTSLSSEISVSQAHQVGANEALTKFDAHELVEAMLRGAELAAKRAN | not soluble |
| MESVTRIKVRYAETDQMGVVHHSVYAVYLEAARVDFLERAGLPYHRVEARGVFFPVVELGLTFRAPARFGEVVEVRTRLAELSSRALLFRYRVEREGVLLAEGFTRHLCQVGERAARIPEDIYRALSVLHLK | soluble |
| MTKKYDLHCHSTASDGVLSPTELVHRAYAQGVNVLALCDHDTIAGIDEAEIAAKEVGIELITGVEISTNWEGRGIHIVGLNFDKTHPKMTALLQSQKALREKRAVEIGDKLEKAGIPNAYDGAKALADGEVTRAHYARYLVQIGKVSNDGQAFKRYLGQGKSAFVKAEWADIPTAIETIHAAGGIAIIAHPLRYNMTGKWVRKLIVDFKAWGGDGMEMADCGQTKDQRQMLARWAKEFDLQGSVGSDFHFPCGWIELGKNLDLVDSVIPVWEKF | not soluble |
| MGSDKIHHHHHHMLITNVRPWGGDNVDLEVHEGRIAAVHPAGTGDVSADAAGGTIDGRGRIAFPAFTDVHVHLDSTRIGLPFREHTASPGVWNMMCNDRENWRDTPIPYADVVAGTLERMIARGTTRVRSYAQIDVDCKLERFEAVLAAKERFAHAAEVEVMAFPQAGLLLEDGTVPLLEEALRAGATTIGGIDPCQLDRDPARHLDIVFELAEKYGVDVDIHLHEPGHLGVFSAELIFERTRALGMQGRVSLSHAYDLANVHPDVTARIVEQMAELDVAWATVAPASGGAQFDLARMTEAGIRVGLGEDGQRDYWSPYGNCDMLDRTWQLAFTHRLRKDRLIEHCAAIATVGGASIMDRTVPRLTSPDDRPGLTPGDRADVVLVDGETVTSTVMDRGTDRTVIHDGRLVADGLAVLPRAAG | not soluble |
| MSLAQAPHPERIYLSGTGIDNTKTWDFFCSAGQNSGKWKKIEVPCNWELQGFGEYTYGRWYTIKGQHPSDETGTYRYKFDAPKSWAGQRVKIFFDGVMTDAEIMINGKPAGEMHQGGFYRFNYDITELLNLGKKNQLEVKVAKESANRSINAAERKADWWLFGGIYRPVWLEVLPQIHMEHFVLNADHQGKLQAAVDMAGDAKGHEIIVSVRSLKDGKTVYTSNGQTTITHSISNSDKEQMISGEWASIIPWSTENPNLYVAKLELKNPEGKIVQTRETRIGFRTVEFFPQDGVYLNGTKLVVKGINRHSFSVDGGRTTSAALSRMDALLIKEMNMNAVRSHYPPDEHFLDMCDSLGLVYMDELAGWQNGYDSRVGAKLVKEMIERDVNHPCIILWSNGNEGGWNTQTDPLFAQYDRLQKRHMVHPWADFNDLDTHHYPTYLTGVARFTNGYKVFMPTEFMHAMYDQGGGAGLRDFWDRWCTNPLFAGGFIWVYCDEAPKRSDKGGILDSDKSNAPDGVVGPRREKEGSYYAIRAQWSPIQLKPLLITNHFDGRFLLTNEYTFTNLKDCRMTYKVLSCGTPLQGNAEAGKVIAEGKVQLPSINPGETGTARFELPDSFRKGDVLELEAFDREGKSICNWTYPIHLAKQYFERNLAQTTLTPAPQKAEARQTSDAIELKSSKVSITFDAATGMIRHIKSGETEVPFKDGPVAIGMKMRYEPSLSYTRHSSDGAIYCAKYKGAADSIVWRLTNEGLLYMDAILLNRGSGGGGFDDAFMDAQVFNLGLSFSYPEQNCSGMKWMGRGPYRVWKNRIPGTNYGIWHKDYNNTITGESFENLIYPEFKGYHANLYWATLEGEKTSFTVYSRNDGTFFRVFTPEEPAGRIKDTMPAFPEGDLSFLLDIPAICSFKPIEQQGPNSQPGNIRIKSGDEGLHLNLMFDFREGHHHHHH | soluble |
| MTTNAIDGSLWLTNAVQPERKTGNQILGKDDFLKILLAQLENQDPLNPMEDKDFIAQMASFSSLEQMMNIANLMQQWMQASSRDALLRYSEWIGKTVHWQDGETMMSAVVQSVMQKDGQVTLGLDNGTTIAADAVVKVEQKG | not soluble |
| HHDITKVDTSGASEITARQDKLTLQGVDASHKLAEHDLVRMNKYKELITRVGQKHGLDPAIIAGIISRESRAGSALDHGWGDHGKGFGLMQVDKRYHKIVGAWDSEKHISQGTEILIEFIRRIQAKFPVWPKEHQLKGGISAYNAGDKNVRTYERMDVGTTGGDYSNDVVARSQWFKSQGY | soluble |
| MGSDKIHHHHHHMTEVISTQSVVDLAAIAEKFAFPGTVTNVQAFGSGNINDTFLVTVDSLEAQHFILQRINTLVFRQPELIMQNMRIFSDHVYQRLQYAPPSRRWEVPRILSTKDNHDYCTDTQGNFWRAISFISGSQSFDTMQDLAQAQEIGYALGMFHNLISDLSPEKLADTLVGFHITPLYLRHYEQVLATAKPQPSPELDYCLQFVSDRQSYACILENAKAAGELPLRLMHGDPKINNIMFDTVTHKAVSVIDLDTVKPGLVHYDIGDCLRSGCNHAGEETEHWESVAFDTDLCQGILQGYLSVAKDFLTENDYAYMYDAIRLIAFELGLRFFADYLAGNVYFKIKYPEHNLARALVQFKLTESIESQEIKIRKIIQDIK | not soluble |
| KQKKMQAMIVTSRPDRVIRMIHHKLHRGVTIINDAEGTYNHEHKAILVTIITRAEFNDFKYIMKKTDKNAFVSVADNVNIIGRFVEED | not soluble |
| MGSDKIHHHHHHMQLSAMFVHPVKSCRGIAFDRAYAGKLGLLHDREWLLVSPDGQQITARAHPKLVTIRVELLPGGALLHHSGKAPIFAMATAYTRPHPAQVWKDGFQAWHGDERVDAWFADILGCDCRLLWLGAQSNRPFKGGPETMSFADGYPFLLASQASLDDLNRQLAAPVTLRHFRPNLVVSGAYPWEEDEWQVIRIGDVEFDVVKPCVRCVLTTVDPELGEKRADGEPLQTLIRTRMLDAGVCFGMNLRARNEGVLELGAPVEVLEQRYSF | not soluble |
| MSRNPFDDDYRPSAASSTMPVKSYTTMGHYSGEDEADYYEREIEKTLQESLDSTERSRRHLENSEKIGTSTAQQLLEQREKLENTEKNLDEIHRTTQMTQRNLNSLKSFFGGMFKNKFTKKPQEPTETPTVPQSKSASRLSETATNLSSGGGSATFSGPSGQRTLTESSRSAIKGTRWEAMDNQIDENLDMMSANLRNLQRLGADLGKEVDSQNEMLDRIQYKAERNDGIVRDQDKQMQKILGTGASTSQTTAESLTPSMDTSTKMSLMMKATSLWK | not soluble |
| YRQSQSRAARLRLLVDTGQELIQLPPEAMRKCVLQRACAFVAMDHGLLLEWGADNGVQTTARHGSKERLSTLETTADPLAIGPQWLERPGTHLPCVLLLPLRGADEGSFGTLVLANSVAISAPDGEDIESLQLLATLLAAHLENNRLLEALVARDRT | soluble |
